In patent US20190375786A1, “STABLE PEPTIDES AND METHODS OF USE THEREOF” (Fred Hutchinson Cancer Research Center, priority 2016, published 2019):

Tests used:
[1] = Resistance to elevated temperature, HPLC; format: physicochemical; settings: HPLC peak vs untreated peptide; for Resistance to Temperature (75° C.): 75° C. for one hour; for Resistance to Temperature (100° C.): 100° C. for one hour
Method: (§1) Peptides were first suspended in 500 μl of ddH2O to a stock concentration of 2 mg/ml. Reactions were prepared by adding 12.5 μg of peptide from the stock solution to a 10 mM solution of DTT in PBS and allowed to incubate at room temperature for 30 minutes. Other reactions were prepared with 12.5 μg peptide and 500 U/ml trypsin in 25 mM Tris/75 mM NaCl buffer (pH 7.0) and incubated for 30 minutes at 37.5° C. These reactions were then quenched with 5 μg of soybean trypsin inhibitor (I) and, in some cases, 10 mM dithiothreitol (DTT). Reversed phase HPLC (RP-HPLC) was run on samples using an Agilent 1260 HPLC equipped with a C-18 Poroshell 120B column. Sample were analyzed by a gradient method with a mobile phase of Solvent A (water with 0.1% TFA) and Solvent B (acetonitrile with 0.1% TFA). Solvent B was ramped up from 5%-45% of the mobile phase over a period of 10 minutes. For testing pepsin digestion resistance, reactions were prepared with 12.5 μg peptide with or without 500 U/ml pepsin in simulated gastric fluid (SGF; pH 1.05; […] sodium chloride in 0.7% (v/v) hydrochloric acid) and were incubated for 30 minutes at 37.5° C. For testing temperature resistance, peptides were incubated at 70° C., 75° C., or 100° C. for one hour in 0.5 mM PBS, pelleted, and then the supernatant was analyzed by HPLC.
This example illustrates peptide stability at high temperatures. Peptides were first suspended in 500 μl of ddH2O to a stock concentration of 2 mg/ml. Reactions were prepared by adding 6.25 μl of peptide from the stock solution with 95 μl ddH2O and incubated at room temperature, 70° C., or 100° C. for one hour in a Thermocycler. RP-HPLC was then run on samples using an Agilent 1260 HPLC equipped with a C-18 Poroshell 120B column. Sample were analyzed by a gradient method with a mobile phase of Solvent A (water with 0.1% TFA) and Solvent B (acetonitrile with 0.1% TFA). Solvent B was ramped up from 5%-45% of the mobile phase over a period of 10 minutes.

[2] = Resistance to reduction by DTT, RP-HPLC; format: physicochemical; settings: 10 mM DTT in PBS, room temperature, 30 minutes; HPLC peak vs untreated peptide
Method: Peptides were first suspended in 500 ul of ddH2O to a stock concentration of 2 mg/ml. Reactions were prepared by adding 12.5 ug of peptide from the stock solution to a 10 mM solution of DTT in PBS and allowed to incubate at room temperature for 30 minutes. Other reactions were prepared with 12.5 μg peptide with or without 500 U/ml pepsin in simulated gastric fluid (SGF; pH 1.05; […] sodium chloride in 0.7% (v/v) hydrochloric acid) and were incubated for 30 minutes at 37.5° C. Some reactions were quenched with a final concentration of 100 mM Tris base and 10 mM dithiothreitol (DTT). Some reactions were performed in all of the above components, including simulated gastric fluid, pepsin, Tris, and DTT (referred to as SPTD). Reversed phase HPLC (RP-HPLC) was run on samples using an Agilent 1260 HPLC equipped with a C-18 Poroshell 120B column. Sample were analyzed by a gradient method with a mobile phase of Solvent A (water with 0.1% TFA) and Solvent B (acetonitrile with 0.1% TFA). Solvent B was ramped up from 5%-45% of the mobile phase over a period of 10 minutes. Peptides were detected at an absorbance of 214 nm and 280 nm.
as §1
This example illustrates peptide stability in biological conditions including in the presence of reducing agents, proteases, oxidative conditions, acidic conditions, and simulated gastric fluids. […] Various peptides were suspended in 500 μl of ddH2O at a stock concentration of 2 mg/ml. This was then diluted in accord with the reaction conditions to prevent adverse buffering effects. Reactions were prepared with 12.5 μg peptide dissolved in solution and, in some samples, additionally suspended in a 10 mM solution of DTT, simulated gastric fluid (pH 1.05; […] sodium chloride in 0.7% (v/v) hydrochloric acid), 500 U pepsin (5000 U/ml pepsin), 50 U trypsin (500 U/ml trypsin) with 1 mg/ml inhibitor in PBS, or a combination of any of these conditions. All protease reactions were incubated for 30 min at room temperature and then quenched. Pepsin reactions were quenched by adding Tris base to a final concentration of 0.075 M. Trypsin reactions were quenched by adding excess soybean trypsin inhibitor. RP-HPLC was then run on samples using an Agilent 1260 HPLC equipped with a C-18 Poroshell 120B column. Sample were analyzed by a gradient method with a mobile phase of Solvent A (water with 0.1% TFA) and Solvent B (acetonitrile with 0.1% TFA). Solvent B was ramped up from 5%-45% of the mobile phase over a period of 10 minutes.
FIG. 18 illustrates high performance liquid chromatograph (HPLC) traces of peptides in non-reducing (NR) conditions (solid trace) or in 10 mM DTT reducing (R) conditions (dashed trace). […]

[3] = target: trypsin (Sus scrofa, UniProt P00761); assay: Trypsin digestion resistance of soluble peptide, RP-HPLC; format: in vitro ADME, porcine; design: purchased Sigma Aldrich 6567; settings: 500 U/ml trypsin, 30 minutes at 37.5° C.; HPLC peak vs untreated peptide
Outline: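 12.5 μg soluble peptide digested with 500 U/ml porcine trypsin in PBS, 30 min at 37.5° C; quenched with soybean trypsin inhibitor, with or without 10 mM DTT reduction afterwards. Intact peptide assessed by C-18 RP-HPLC, 5-45% acetonitrile/0.1% TFA gradient over 10 min.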

[4] = target: pepsin (Sus scrofa, UniProt P00791); assay: Pepsin digestion resistance in simulated gastric fluid, RP-HPLC; format: in vitro ADME, porcine; design: purchased Sigma Aldrich P7012; settings: 500 U/ml pepsin in SGF pH 1.05, 30 minutes at 37.5° C.; HPLC peak vs untreated peptide
Outline: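 Peptide (12.5 μg) incubated 30 min at 37.5 °C with or without 500 U/ml pepsin in simulated gastric fluid (pH 1.05; 2% NaCl in 0.7% HCl); some reactions quenched with 100 mM Tris and 10 mM DTT. Intact peptide followed by C-18 RP-HPLC (5–45% acetonitrile/0.1% TFA over 10 min) at 214 and 280 nm.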

Chain of pepsin (P00791 60-385): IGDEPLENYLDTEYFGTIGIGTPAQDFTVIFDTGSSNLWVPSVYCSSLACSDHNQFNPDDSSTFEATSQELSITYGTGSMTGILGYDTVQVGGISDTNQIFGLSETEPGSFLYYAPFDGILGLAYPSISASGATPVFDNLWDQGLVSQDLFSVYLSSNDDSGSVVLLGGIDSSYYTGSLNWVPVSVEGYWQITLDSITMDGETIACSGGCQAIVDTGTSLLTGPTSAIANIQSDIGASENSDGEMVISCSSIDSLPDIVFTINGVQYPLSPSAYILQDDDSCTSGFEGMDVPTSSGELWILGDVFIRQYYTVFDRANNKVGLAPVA
Chain of trypsin (P00761 9-231): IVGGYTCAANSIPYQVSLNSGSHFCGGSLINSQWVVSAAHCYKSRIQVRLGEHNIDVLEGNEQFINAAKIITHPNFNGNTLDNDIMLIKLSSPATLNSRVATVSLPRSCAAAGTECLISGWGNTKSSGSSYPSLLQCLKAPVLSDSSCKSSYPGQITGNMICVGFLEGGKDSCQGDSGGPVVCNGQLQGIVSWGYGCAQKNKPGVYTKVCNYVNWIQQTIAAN

Substance	Resistance to Temperature (75° C.) [1]	Resistance to Temperature (100° C.) [1]	Resistance to DTT Reduction (10 mM) [2]	Resistance to Trypsin (500 U/ml) [3]	Resistance to Pepsin (500 U/ml) [4]	Resistance to Temperature (70° C.) ([1]; 70° C. for one hour)
15 (GSCIGEGVPCDENDPRCCFGLVCLKPTLHGIWYKSYYCYKK) [compound 15]	High (A peptide classified as high indicates that the majority (at least 75%) of the HPLC peak of the treated peptide is still present as compared to the HPLC peak of the untreated peptide)	Low (A peptide classified as low indicates that the majority (over 75%) of the HPLC peak of the treated peptide disappeared as compared to the HPLC peak of the untreated peptide)	Low (A peptide classified as low indicates that the majority (over 75%) of the HPLC peak of the treated peptide disappeared as compared to the HPLC peak of the untreated peptide)	Low (A peptide classified as low indicates that the majority (over 75%) of the HPLC peak of the treated peptide disappeared as compared to the HPLC peak of the untreated peptide)	High (A peptide classified as high indicates that the majority (at least 75%) of the HPLC peak of the treated peptide is still present as compared to the HPLC peak of the untreated peptide)	
25 (GSACLAEYQKCEGSTVPCCPGLSCSAGRFRKTKLCTK) [compound 25]	High (A peptide classified as high indicates that the majority (at least 75%) of the HPLC peak of the treated peptide is still present as compared to the HPLC peak of the untreated peptide)	Low (A peptide classified as low indicates that the majority (over 75%) of the HPLC peak of the treated peptide disappeared as compared to the HPLC peak of the untreated peptide)	Low (A peptide classified as low indicates that the majority (over 75%) of the HPLC peak of the treated peptide disappeared as compared to the HPLC peak of the untreated peptide)	Low (A peptide classified as low indicates that the majority (over 75%) of the HPLC peak of the treated peptide disappeared as compared to the HPLC peak of the untreated peptide)	High (A peptide classified as high indicates that the majority (at least 75%) of the HPLC peak of the treated peptide is still present as compared to the HPLC peak of the untreated peptide)	High (A peptide classified as high indicates that the majority (at least 75%) of the HPLC peak of the treated peptide is still present as compared to the HPLC peak of the untreated peptide)
21 (GSRCQLQGFNCVVRSYGLPTIPCCRGLTCRSYFPGSTYGRCQRY) [compound 21]	High (A peptide classified as high indicates that the majority (at least 75%) of the HPLC peak of the treated peptide is still present as compared to the HPLC peak of the untreated peptide)	Low (A peptide classified as low indicates that the majority (over 75%) of the HPLC peak of the treated peptide disappeared as compared to the HPLC peak of the untreated peptide)	Low (A peptide classified as low indicates that the majority (over 75%) of the HPLC peak of the treated peptide disappeared as compared to the HPLC peak of the untreated peptide)	Moderate (A peptide classified as medium indicates that about half (between 25% and 75%) of the HPLC peak of the treated peptide disappeared as compared to the HPLC peak of the untreated peptide)	High (A peptide classified as high indicates that the majority (at least 75%) of the HPLC peak of the treated peptide is still present as compared to the HPLC peak of the untreated peptide)	
17 (GSACQFWSCNSSCISRGYRQGYCWGIQYKYCQCQ) [compound 17]	High (A peptide classified as high indicates that the majority (at least 75%) of the HPLC peak of the treated peptide is still present as compared to the HPLC peak of the untreated peptide)	High (A peptide classified as high indicates that the majority (at least 75%) of the HPLC peak of the treated peptide is still present as compared to the HPLC peak of the untreated peptide)	Moderate (A peptide classified as medium indicates that about half (between 25% and 75%) of the HPLC peak of the treated peptide disappeared as compared to the HPLC peak of the untreated peptide)	Low (A peptide classified as low indicates that the majority (over 75%) of the HPLC peak of the treated peptide disappeared as compared to the HPLC peak of the untreated peptide)	High (A peptide classified as high indicates that the majority (at least 75%) of the HPLC peak of the treated peptide is still present as compared to the HPLC peak of the untreated peptide)	
11 (GSNCAGYMRECKEKLCCSGYVCSSRWKWCVLPAPWRR) [compound 11]	High (A peptide classified as high indicates that the majority (at least 75%) of the HPLC peak of the treated peptide is still present as compared to the HPLC peak of the untreated peptide)	Low (A peptide classified as low indicates that the majority (over 75%) of the HPLC peak of the treated peptide disappeared as compared to the HPLC peak of the untreated peptide)	Low (A peptide classified as low indicates that the majority (over 75%) of the HPLC peak of the treated peptide disappeared as compared to the HPLC peak of the untreated peptide)	High (A peptide classified as high indicates that the majority (at least 75%) of the HPLC peak of the treated peptide is still present as compared to the HPLC peak of the untreated peptide)	High (A peptide classified as high indicates that the majority (at least 75%) of the HPLC peak of the treated peptide is still present as compared to the HPLC peak of the untreated peptide)	
